Results reported in patent US20240293460A1 (published 2024).
One block for each binder: values may come before it.

Molecular target: soluble DKK1 peptide P20/HLA-A2 complex (human;, UniProt P61769 21-119; O94907 20-29)
Assay: SPR

- Kd: 2780 nM
B1: DKK1-A2 mAb HMB7 (antibody, V domains shown)
VH: EVQLQQSGAELVKPGASVKLSCTASGFNIKDTYMHWVKQRPEQGLEWIGRIDPANGDTKYDPKFQGKATITADTSSNTAYLHLSSLTSEDTAVYYCARGRYYYGTSSFDYWGQGTTLTVSS
VL: DIVMTQSHKFMSTSVGDWVSITCKAWQDVDTAVAWYQQKPGQSPKLLIYWASTRHTGVPDRFTGSGSGTDFTLTISNVQSEDLADYFCQQYSSYPYTFGGGTKLEIK

- Kd: 17.6 nM
B2: DKK1-A2 mAb HMB1 (antibody, V domains shown)
VH: QVQLKESGPGLVAPSQSLSITCTVSGFSLTDFAVTWIRQPPGKGLEWLGVIWGGGSTYYNSALKSRLSISKDNSKSQVFLKMNSLQTDDTAMYYCAKTTPIYFDYDHALDYWGQGTSVTVSS
VL: DVVVTQTPLSLPVSFGDQVSISCRSSQSLTNSYGNTYLSWYLHKPGQSPQLLIYGISNRFSGVPDRFSGSGSGTDFTLKISTIKPEDLGMYYCLQGTHQPYTFGGGTKLEIK
